{
  "source": "patent US11142588B2",
  "about": "“Polypeptides which bind C-X-C chemokine receptor type 4 (CXCR4) and methods of treating or reducing the risk of fibrosis and cancer” (AdAlta Limited, priority 2015, dated 2021)",
  "molecules": {"B1": {"name": "AM3-523: affinity matured CXCR4 i-body, SEQ ID NO: 56 (protein)", "chain": "LQVDIVPSQGEISVGESKFFLCQVAGSGSHMRISWFSPNGEKLTPNQQRISVVWNDDSSSTLTIYNANIDDAGIYKCVVWVGGYRHRALVLGEATVNVKIFQ", "modifications": "protein sequence encoding AM3-523"}},
  "key": {"CCR4": {"biological_target": "T1, CCR4 (Homo sapiens, UniProt P51679)", "T1 sequence (P51679 1-360)": "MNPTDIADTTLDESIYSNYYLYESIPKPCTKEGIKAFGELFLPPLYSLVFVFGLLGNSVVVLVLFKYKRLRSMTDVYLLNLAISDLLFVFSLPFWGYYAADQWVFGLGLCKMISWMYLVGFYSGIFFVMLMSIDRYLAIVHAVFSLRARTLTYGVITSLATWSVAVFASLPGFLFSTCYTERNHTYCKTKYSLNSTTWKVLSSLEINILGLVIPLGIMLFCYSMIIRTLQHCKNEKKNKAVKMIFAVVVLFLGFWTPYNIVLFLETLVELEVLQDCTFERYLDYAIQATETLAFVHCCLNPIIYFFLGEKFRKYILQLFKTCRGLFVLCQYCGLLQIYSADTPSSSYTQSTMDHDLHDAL", "assay": "PathHunter (DiscoverX) β-arrestin assay, CCR4", "type": "cell-based", "description": "(FIG. 9) The PathHunter® β-Arrestin assay (DiscoveRx) was performed according to the manufacturer's protocol. Cells were seeded into white walled, 384-well tissue culture-treated microplates (Corning) and normalized at 5,000 cells (or 10,000 cells for CXCR4) in a total volume of […]. Cell growth was at 37° C. (5% CO2, 95% relative humidity). […] Agonists were then added at the EC80 concentration and incubation was continued at 37° C. for 90 min (or 180 min for CCR1). Assay signal was generated through a single addition of 15 μL (50% v/v) of PathHunter Detection reagent cocktail, followed by 1 h incubation at room temperature. Microplates were read following signal generation with a PerkinElmer Envision instrument for chemiluminescent signal detection of relative light units (RLU)."}, "CXCR4": {"biological_target": "CXCR4 (Homo sapiens, UniProt P61073)", "sequence (P61073 whole entry)": "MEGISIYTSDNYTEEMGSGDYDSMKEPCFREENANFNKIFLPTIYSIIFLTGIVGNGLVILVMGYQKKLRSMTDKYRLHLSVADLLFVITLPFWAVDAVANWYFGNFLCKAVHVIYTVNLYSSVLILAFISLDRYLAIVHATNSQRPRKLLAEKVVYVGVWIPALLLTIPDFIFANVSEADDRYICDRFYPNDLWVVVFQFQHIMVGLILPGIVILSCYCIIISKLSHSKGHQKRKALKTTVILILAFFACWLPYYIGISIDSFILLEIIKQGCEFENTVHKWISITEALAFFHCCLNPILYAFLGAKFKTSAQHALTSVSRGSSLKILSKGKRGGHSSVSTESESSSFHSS", "assay": "β-arrestin BRET assay, antagonist mode with 100 nM SDF-1", "type": "cell-based", "set-up": "expressed in transfected cells; host or cells: HEK293FT", "details": "read-out: IC50 (nM) in β-Arrestin BRET assay (Antagonist mode in the presence of 100 nM SDF-1)", "how_it_was_run": "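Ten concentrations of i-body with 100 nM SDF-1 were applied to transiently transfected HEK293FT cells carrying CXCR4/Rluc8 donor and β-arrestin2/Venus acceptor. Emissions at 400-475 and 520-540 nm were read at 37 °C, and the vehicle-subtracted ratio gave the BRET signal (four independent duplicate experiments).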"}},
  "data": [
    {"molecule": "B1", "values": [
      {"measurement": "CCR4 activity", "setting": "CCR4", "value": "−2", "unit": "%"},
      {"measurement": "IC50", "setting": "CXCR4", "value": 12700, "unit": "nM"}
    ]}
  ]
}
